In US20220251219A1 (published 2022):
Numbering of substitutions follows the chain as printed.

B1: anti-Sortilin antibody S-2 (antibody, V domains shown)
VH: not shown
VL: DIQMTQSPSSLSASVGDRVTITCRASQSISSYLNWYQQKPGKAPKLLIYAASSLQSGVPSRFSGSGSGTDFTLTISSLQPEDFATYYCQQSDVSPITFGGGTKVEIK
B2: anti-Sortilin antibody S-18 (antibody, V domains shown)
VH: QVQLVQSGAEVKKPGSSVKVSCKASGGTFSSYAISWVRQAPGQGLEWMGSIIPIFGTANYAQKFQGRVTITADESTSTAYMELSSLRSEDTAVYYCARDKHGRRGYYYYMDVWGKGTTVTVSS
VL: EIVLTQSPATLSLSPGERATLSCRASQSVSSYLAWYQQKPGQAPRLLIYDASNRATGIPARFSGSGSGTDFTLTISSLEPEDFAVYYCQQGANAPPRTFGGGTKVEIK
B3: anti-Sortilin antibody S-51 (antibody, V domains shown)
VH: QVQLVESGGGVVQPGRSLRLSCAASGFTFSSYGMHWVRQAPGKGLEWVAVISYDGSNKYYADSVKGRFTISRDNSKNTLYLQMNSLRAEDTAVYYCAKGLEYYDSSRLYYPYYYYMDVWGKGTTVTVSS
VL: EIVLTQSPATLSLSPGERATLSCRASQSVSSYLAWYQQKPGQAPRLLIYDASKRATGIPARFSGSGSGTDFTLTISSLEPEDFAVYYCQQRSNYPITFGGGTKVEIK
B4: anti-Sortilin antibody S-29 (antibody, V domains shown)
VH: EVQLVESGGGLVKPGGSLRLSCAASGFTFSSYSMNWVRQAPGKGLEWVSSISSSSNYIYYADSVKGRFTISRDNAKNSLYLQMNSLRAEDTAVYYCARGGLDRWGSFDIWGQGTMVTVSS
VL: not shown
B5: anti-Sortilin antibody S-28 (antibody, V domains shown)
VH: B4 VH
VL: not shown
B6: anti-Sortilin antibody S-15 (antibody, V domains shown)
VH: QVQLVQSGAEVKKPGASVKVSCKASGYTFTSYYMSWVRQAPGQGLEWMGIINPSGGSTSYAQKFQGRVTMTRDTSTSTVYMELSSLRSEDTAVYYCARDPSGIAAAGPASRYYYGMDVWGQGTTVTVSS
VL: EIVMTQSPATLSVSPGERATLSCRASQSVSSNLAWYQQKPGQAPRLLIYGASTRATGIPARFSGSGSGTEFTLTISSLQSEDFAVYYCQQARLGPWTFGGGTKVEIK
B7: anti-Sortilin antibody S-22 (antibody, V domains shown)
VH: QVQLVQSGAEVKKPGSSVKVSCKASGGTFSSYAISWVRQAPGQGLEWMGGIIPIFGTASYAQKFQGRVTITADESTSTAYMELSSLRSEDTAVYYCARQGRKTGYYYYYGMDVWGQGTTVTVSS
VL: DIQMTQSPSTLSASVGDRVTITCRASQSISSWLAWYQQKPGKAPKLLIYKASSLESGVPSRFSGSGSGTEFTLTISSLQPDDFATYYCQQADGHITFGGGTKVEIK
B8: anti-Sortilin antibody S-21 (antibody, V domains shown)
VH: B7 VH with G50S, S59N, Q99E, G100R, K102Y, T103D
VL: B1 VL with S91K, D92A, V93S, S94L, I96F
B9: anti-Sortilin antibody S-19 (antibody, V domains shown)
VH: QVQLVQSGAEVKKPGSSVKVSCKASGGTFSSYAISWVRQAPGQGLEWMGGIIPIFGTASYAQKFQGRVTITADESTSTAYMELSSLRSEDTAVYYCARESRIPGSGYYYYYGMDVWGQGTTVTVSS
VL: B1 VL with A50S, S91T, V93G, S94K, I96P
notes: IgG
B10: anti-Sortilin antibody S-18 (antibody, V domains shown)
VH: B2 VH
VL: B2 VL
notes: IgG
B11: anti-Sortilin antibody S-28 (antibody, V domains shown)
VH: B4 VH
VL: not shown
notes: IgG
B12: anti-Sortilin antibody S-29 (antibody, V domains shown)
VH: B4 VH
VL: not shown
notes: IgG
B13: anti-Sortilin antibody S-26 (antibody, V domains shown)
VH: EVQLVESGGGLVKPGGSLRLSCAASGFTFSSYSMNWVRQAPGKGLEWVSSISSSSSYIYYADSVKGRFTISRDNAKNSLYLQMNSLRAEDTAVYYCARDRLGRGYKWNWFDPWGQGTLVTVSS
VL: DIQMTQSPSSVSASVGDRVTITCRASQGIDSWLAWYQQKPGKAPKLLIYAASSLQSGVPSRFSGSGSGTDFTLTISSLQPEDFATYYCQQGNSLPPITFGGGTKVEIK
notes: IgG
B14: anti-Sortilin antibody S-14 (antibody, V domains shown)
VH: B6 VH
VL: B1 VL with A50G, S91H, D92Y, S94G, I96F
notes: IgG
B15: anti-Sortilin antibody S-15 (antibody, V domains shown)
VH: B6 VH
VL: B6 VL
notes: IgG
B16: anti-Sortilin antibody S-22 (antibody, V domains shown)
VH: B7 VH
VL: B7 VL
notes: IgG
B17: anti-Sortilin antibody S-21 (antibody, V domains shown)
VH: B7 VH with G50S, S59N, Q99E, G100R, K102Y, T103D
VL: B1 VL with S91K, D92A, V93S, S94L, I96F
notes: IgG

biological target: human Sortilin (human, UniProt Q99523 78-830); test: cell-based or functional assay

Row | Binder | Percent reduction of Sortilin levels in U251 cells [%]
1 | B1 | 96.2
2 | B2 | 85.7
3 | B3 | 75.9
4 | B4 | 90.8
5 | B5 | 85
6 | B6 | 87.8
7 | B7 | 92.7
8 | B8 | 78.7

biological target: mouse Sortilin (mouse, UniProt Q6PHU5 74-825); test: cell-based or functional assay

Row | Binder | Percent reduction of Sortilin levels in N2A cells [%]
9 | B1 | 66
10 | B2 | 58
11 | B3 | 80.7
12 | B4 | 53.8
13 | B5 | 51.1
14 | B6 | 76.1
15 | B7 | 87.7
16 | B8 | 71.9

biological target: T1, recombinant human Sortilin (human, UniProt Q99523 78-830); test: flow cytometry, 293 cells expressing recombinant human Sortilin, 10 ug/ml antibody
T1 construct: also called hSort; SORT1
Experimental: (§1) Cells were harvested, plated at 10⁵/ml in a 96 well plate, washed, and incubated in 100 μl PBS containing 10 μg/ml Mab and 2% FBS for 1 hour in ice. Cells were then washed twice and incubated in 100 μl PBS+2% FBS containing 5 μg/ml PE-conjugated anti-human secondary antibody for 30 minutes in ice. Cells were washed twice in cold PBS and data was acquired on a BD FACS Canto. Data analysis and calculation of MFI values was performed with FlowJo (TreeStar) software version 10.0.7.

Row | Binder | MFI [MFI]
17 | B9 | 11700
18 | B10 | 9350
19 | B11 | 8560
20 | B12 | 9600
21 | B13 | 9020
22 | B14 | 8010
23 | B15 | 8740
24 | B16 | 8940
25 | B17 | 9380

biological target: T2, recombinant mouse Sortilin (mouse, UniProt Q6PHU5 74-825); test: flow cytometry, 293 cells expressing recombinant mouse Sortilin, 10 ug/ml antibody
T2 construct: also called mSort
Experimental: as §1

Row | Binder | MFI [MFI]
26 | B9 | 28200
27 | B10 | 21700
28 | B11 | 21600
29 | B12 | 21800
30 | B13 | 20900
31 | B14 | 16500
32 | B15 | 17600
33 | B16 | 23200
34 | B17 | 22900
